Reference: US20220306739A1

Target: T cell receptor gamma variable 9 (TRGV9) on human γδ T cells (human) (UniProt Q99603)
Assay: γδ T-cell binding (γδ-enriched T cells), readout 'Signal'

B1: VG9B2, chimera human IgG1 mAb (silent Fc) of mouse anti-human TCR Vγ9 clone B3 (antibody, V domains shown)
VH: QGQMQQSGAELVKPGASVKLSCKTSGFTFSSNYISWLKQKPGQSLEWIAWIHGGTGGIGYNQKFTGKAQLTVDTSSTTAYMQFSSLTTEDSAIYYCARRGYGAWFAYWGQGTLVTVSA
VL: DIQMTQSPASLSASVGETVTITCRASENIHNYLAWYQQKQGKSPQLLVYNAKTLADGVPSRFSGSGSGTQYSLKINSLQPEDFGNYYCQHFWSYPLTFGAGTKLELK
EC50: 0.56 nM
